According to patent publication US6649364:

Columns and labels:
[1] = target: DNase I (Sigma, St. Louis, Mo.)
[2] = target: α-actin purified from rabbit skeletal muscle, globular (G-actin) form, P68135

B1: highly purified human recombinant ICE (p20/p10) (Merck) (protein)
chain 1: NPAMPTSSGSEGNVKLCSLEEAQRIWKQKSAEIYPIMDKSSRTRLALIICNEEFDSIPRRTGAEVDITGMTMLLQNLGYSVDVKKNLTASDMTTELEAFAHRPEHKTSDSTFLVFMSHGIREGICGKKHSEQVPDILQLNAIFNMLNTKNCPSLKDKPKVIIIQACRGDSPGVVWFKD
chain 2: AIKKAHIEKDFIAFCSSTPDNVSWRHPTMGSVFIGRLIEHMQEYACSCDVEEIFRKVRFSFEQPDGRAQMPTTERVTLTRCFYLFPGH
cleavage of DNase I and its endonuclease activity [1]: Control incubations without actin demonstrated that ICE neither cleaved DNase I nor affected its endonuclease activity
cleavage of purified actin (SDS-polyacrylamide gel electrophoresis) [2]: In the presence of ICE, actin was cleaved, resulting in a disappearance of the 42 kd band, and the appearance of bands at approximately 41 kd, 30 kd, and 14 kd
